Assay results published in patent publication US20220380421A1 (University of California, published 2022).

Assays:
[1] = target: T1, Myc-tagged SpyCas9-sgRNA (Streptococcus pyogenes, UniProt Q99ZW2 1-1368); assay: co-immunoprecipitation of Myc-tagged SpyCas9-sgRNA from P. aeruginosa co-expressing GST-Acr; immunoblot and Coomassie gel (FIG. 3B)
T1 construct: not shown: 3xMyc tag at the C-terminus

[2] = target: T2, Myc-tagged Apo-SpyCas9 (Streptococcus pyogenes, UniProt Q99ZW2 1-1368); assay: GST-Acr immunoprecipitation from P. aeruginosa expressing Myc-tagged Apo-SpyCas9 without sgRNA; immunoblot (FIGS. 3D, 7C)
T2 construct: not shown: 3xMyc tag at the C-terminus
T2 sequence (Q99ZW2 whole entry): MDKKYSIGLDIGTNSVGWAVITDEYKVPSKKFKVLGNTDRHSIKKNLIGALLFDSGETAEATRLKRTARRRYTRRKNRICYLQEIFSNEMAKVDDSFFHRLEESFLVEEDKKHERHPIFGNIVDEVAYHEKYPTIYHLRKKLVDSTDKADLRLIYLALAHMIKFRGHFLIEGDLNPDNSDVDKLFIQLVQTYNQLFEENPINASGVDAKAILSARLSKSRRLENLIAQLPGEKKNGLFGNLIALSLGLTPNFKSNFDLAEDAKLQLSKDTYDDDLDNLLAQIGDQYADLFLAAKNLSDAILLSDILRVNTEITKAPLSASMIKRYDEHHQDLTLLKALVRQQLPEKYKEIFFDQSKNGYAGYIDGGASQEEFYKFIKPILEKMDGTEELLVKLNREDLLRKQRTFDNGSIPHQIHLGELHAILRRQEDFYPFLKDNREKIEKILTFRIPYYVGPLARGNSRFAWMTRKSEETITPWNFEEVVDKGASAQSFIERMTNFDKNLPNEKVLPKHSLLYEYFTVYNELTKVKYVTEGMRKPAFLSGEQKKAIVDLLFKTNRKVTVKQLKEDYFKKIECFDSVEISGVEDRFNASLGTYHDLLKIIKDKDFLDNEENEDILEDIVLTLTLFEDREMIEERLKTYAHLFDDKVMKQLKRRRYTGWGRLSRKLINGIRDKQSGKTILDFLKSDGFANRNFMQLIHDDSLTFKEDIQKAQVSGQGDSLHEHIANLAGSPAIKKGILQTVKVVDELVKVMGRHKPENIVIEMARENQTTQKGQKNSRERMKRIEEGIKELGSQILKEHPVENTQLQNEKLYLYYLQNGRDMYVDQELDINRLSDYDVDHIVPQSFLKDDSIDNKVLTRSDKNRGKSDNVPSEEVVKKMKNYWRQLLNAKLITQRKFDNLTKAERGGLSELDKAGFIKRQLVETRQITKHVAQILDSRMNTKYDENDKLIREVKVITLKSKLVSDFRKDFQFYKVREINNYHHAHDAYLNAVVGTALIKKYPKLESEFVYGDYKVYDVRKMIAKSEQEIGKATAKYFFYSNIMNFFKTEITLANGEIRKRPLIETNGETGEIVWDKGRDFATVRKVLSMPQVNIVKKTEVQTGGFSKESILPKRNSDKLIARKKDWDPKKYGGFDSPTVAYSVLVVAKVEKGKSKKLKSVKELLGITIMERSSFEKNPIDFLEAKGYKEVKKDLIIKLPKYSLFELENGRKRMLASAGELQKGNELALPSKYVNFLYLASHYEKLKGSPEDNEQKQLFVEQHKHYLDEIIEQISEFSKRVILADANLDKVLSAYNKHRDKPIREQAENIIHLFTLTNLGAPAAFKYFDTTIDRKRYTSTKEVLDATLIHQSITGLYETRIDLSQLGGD

[3] = target: T1, Myc-tagged SpyCas9-sgRNA; assay: discussion of the co-immunoprecipitation results; state of SpyCas9 not named there

T1 sequence (Q99ZW2 whole entry): as above

Binder | binding result [1] | binding result [2] | binding result [3]
GST-AcrIIA16_Lmo (other) MGYIGTKRSERSQDAIEDYEVPLNHFNKDLIQAFIDENEAYDTLKTKKVRLWKFVAPRAGATSWHHTGTYYNKTDHYSLEKVADELLQNGDEWEEQFKAYVKEEQETATSEPVFLSVIKVQIWGGSMKRPKLVGHEVVMGVKKEGWLHAVSKATQSKYKLSANKVEMQKHYSLEDYSALTKDFPEFKAQKRAINKKMKEMYN | binds | binds | 
GST-AcrIIA19_Ssim (other) MKLIVEVEETNYKNLVNYTKLTNESHNILVNRLISEYITKPYELRLDLSERYSNRDLIEFKFMLIEYCKEALQDIKELANSDEAYETDEAFEAVFRQLFEEVISNPDTVLKAFHSYTSFLEENK |  | binds | binds
GST-AcrIIA17_Sga (other, also called GST-AcrIIA7_Sga) MKISVDSEKLLNEAINDFDIFGEDFNVYAIYSYREDYDFEYISDYVDADEPTRDEFETEEDYQEVMKDFKENLDSLKFTKHKKMTIADLVHELWEQNRIF |  | binds | binds
